Our source for the Kd and stoichiometry N values is paper doi:10.1101/2020.06.26.173310.

In test [1] the target is response regulator from Deinococcus radiodurans (DrRR) (Deinococcus radiodurans strain R1) (UniProt Q9RZA5). Nature of the test: SPR. In general terms: SPR reads the build-up and loss of mass on a sensor chip optically.
For test [2] the target is unchanged. Nature of the test: SPR. The source holds these as a separate data set.
For test [3] the target is unchanged. Kind of test: SPR. The source holds these as a separate data set.
The target of test [4] is response regulator from Agrobacterium fabrum (AtRR) (Agrobacterium fabrum strain C58) (UniProt Q7CY46). Kind of test: SPR.
Test [5] deals with bacteriophytochrome from Deinococcus radiodurans (DrBphP) (Deinococcus radiodurans strain R1) (UniProt Q9RZA4). Kind of test: ITC. (In general: Isothermal titration calorimetry measures the heat released or taken up as one component is titrated into another.)
Chain of bacteriophytochrome from Deinococcus radiodurans (DrBphP) (Deinococcus radiodurans strain R1) (Q9RZA4 whole entry): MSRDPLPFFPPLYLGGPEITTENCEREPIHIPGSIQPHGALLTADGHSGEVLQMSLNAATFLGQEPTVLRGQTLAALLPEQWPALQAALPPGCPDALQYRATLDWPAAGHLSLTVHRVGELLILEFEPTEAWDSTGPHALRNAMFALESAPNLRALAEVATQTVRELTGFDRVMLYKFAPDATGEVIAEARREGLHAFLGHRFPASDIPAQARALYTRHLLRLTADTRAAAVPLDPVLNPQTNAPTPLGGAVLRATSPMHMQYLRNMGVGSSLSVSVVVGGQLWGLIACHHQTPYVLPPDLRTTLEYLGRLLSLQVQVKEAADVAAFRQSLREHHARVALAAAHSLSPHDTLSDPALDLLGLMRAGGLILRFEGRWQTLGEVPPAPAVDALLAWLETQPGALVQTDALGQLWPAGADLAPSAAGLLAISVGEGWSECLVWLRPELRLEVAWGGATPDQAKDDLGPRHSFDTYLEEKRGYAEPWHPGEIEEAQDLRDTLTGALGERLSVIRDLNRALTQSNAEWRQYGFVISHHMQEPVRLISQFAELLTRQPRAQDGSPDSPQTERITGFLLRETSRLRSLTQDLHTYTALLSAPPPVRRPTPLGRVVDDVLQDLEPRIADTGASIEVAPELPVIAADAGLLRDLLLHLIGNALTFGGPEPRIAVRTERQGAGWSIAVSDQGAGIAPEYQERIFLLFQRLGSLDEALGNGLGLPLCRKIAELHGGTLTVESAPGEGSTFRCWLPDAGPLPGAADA
The target is the same in test [6]. Kind of test: ITC. The source holds these as a separate data set.

Where two headings read alike, the source gives them in different places.

A word on the Kd: it is a measure of binding affinity in units of concentration. A word on the stoichiometry N: it is a count of units in the complex or per binding partner. For “bacteriophytochrome from Deinococcus radiodurans (DrBphP) (from UniProt Q9RZA4 1-755) (natural protein)”, the Kd stood at 43 µM in test [1], 10 µM in test [2] and 60 µM in test [3]. Moreover, in test [1], the stoichiometry N was determined as 1.
“phytochrome 1 from Agrobacterium fabrum strain C58 (AgP1) (from UniProt Q7CY45 1-736) (natural protein)” yielded a Kd in test [4] of over 200 µM.
Take “response regulator from Deinococcus radiodurans (DrRR) (from UniProt Q9RZA5 1-149) (natural protein)”: the values for the Kd in test [5] and in test [6] were 35 µM and 10.5 µM, respectively. The substance further showed a stoichiometry N in test [6] of 1.
